The values below come from patent publication US20230407373A1 (priority 2020, published 2023).

The test system of this assay is HCoV-OC43 gRNA and sgRNA. In kind it is binding. The note with it: for target (unweighted spectral count): OC43 Probe II, infected cells; for target (unweighted spectral count) / target (unweighted spectral count, OC43 Probe II capture): tested against no-probe control; for target (unweighted spectral count, OC43 Probe II capture): FDR<10%; for target (unweighted spectral count, OC43 Probe II) / background (unweighted spectral count, no-probe control): type n_48_v, 48 hpi; for target (unweighted spectral count, OC43 Probe II): OC43 Probe II capture on infected cells; for background (unweighted spectral count, no-probe control): no-probe control on infected cells.

Like-named read-outs stand apart in the source and are kept apart here.

B1: JUP (protein, UniProt P14923 1-745, looked up)
Junction plakoglobin: MEVMNLMEQPIKVTEWQQTYTYDSGIHSGANTCVPSVSSKGIMEEDEACGRQYTLKKTTTYTQGVPPSQGDLEYQMSTTARAKRVREAMCPGVSGEDSSLLLATQVEGQATNLQRLAEPSQLLKSAIVHLINYQDDAELATRALPELTKLLNDEDPVVVTKAAMIVNQLSKKEASRRALMGSPQLVAAVVRTMQNTSDLDTARCTTSILHNLSHHREGLLAIFKSGGIPALVRMLSSPVESVLFYAITTLHNLLLYQEGAKMAVRLADGLQKMVPLLNKNNPKFLAITTDCLQLLAYGNQESKLIILANGGPQALVQIMRNYSYEKLLWTTSRVLKVLSVCPSNKPAIVEAGGMQALGKHLTSNSPRLVQNCLWTLRNLSDVATKQEGLESVLKILVNQLSVDDVNVLTCATGTLSNLTCNNSKNKTLVTQNSGVEALIHAILRAGDKDDITEPAVCALRHLTSRHPEAEMAQNSVRLNYGIPAIVKLLNQPNQWPLVKATIGLIRNLALCPANHAPLQEAAVIPRLVQLLVKAHQDAQRHVAAGTQQPYTDGVRMEEIVEGCTGALHILARDPMNRMEIFRLNTIPLFVQLLYSSVENIQRVAAGVLCELAQDKEAADAIDAEGASAPLMELLHSRNEGTATYAAAVLFRISEDKNPDYRKRVSVELTNSLFKHDPAAWEAAQSMIPINEPYGDDMDATYRPMYSSDVPLDPLEMHMDMDGDYPIDTYSDGLRPPYPTADHMLA
B1: the “target (unweighted spectral count)” value (24 hpi (type n_24_v)) was 11.

B2: RBM39 (protein, UniProt Q14498 2-530, looked up)
RNA-binding protein 39: ADDIDIEAMLEAPYKKDENKLSSANGHEERSKKRKKSKSRSRSHERKRSKSKERKRSRDRERKKSKSRERKRSRSKERRRSRSRSRDRRFRGRYRSPYSGPKFNSAIRGKIGLPHSIKLSRRRSRSKSPFRKDKSPVREPIDNLTPEERDARTVFCMQLAARIRPRDLEEFFSTVGKVRDVRMISDRNSRRSKGIAYVEFVDVSSVPLAIGLTGQRVLGVPIIVQASQAEKNRAAAMANNLQKGSAGPMRLYVGSLHFNITEDMLRGIFEPFGRIESIQLMMDSETGRSKGYGFITFSDSECAKKALEQLNGFELAGRPMKVGHVTERTDASSASSFLDSDELERTGIDLGTTGRLQLMARLAEGTGLQIPPAAQQALQMSGSLAFGAVAEFSFVIDLQTRLSQQTEASALAAAASVQPLATQCFQLSNMFNPQTEEEVGWDTEIKDDVIEECNKHGGVIHIYVDKNSAQGNVYVKCPSIAAAIAAVNALHGRWFAGKMITAAYVPLPTYHNLFPDSMTATQLLVPSRR
B2: the “target (unweighted spectral count)” value runs as follows: (12 hpi (type n_12_v)) 6; (24 hpi (type n_24_v)) 10.

B3: HNRNPF (protein, UniProt P52597 1-415, looked up)
Heterogeneous nuclear …: MMLGPEGGEGFVVKLRGLPWSCSVEDVQNFLSDCTIHDGAAGVHFIYTREGRQSGEAFVELGSEDDVKMALKKDRESMGHRYIEVFKSHRTEMDWVLKHSGPNSADSANDGFVRLRGLPFGCTKEEIVQFFSGLEIVPNGITLPVDPEGKITGEAFVQFASQELAEKALGKHKERIGHRYIEVFKSSQEEVRSYSDPPLKFMSVQRPGPYDRPGTARRYIGIVKQAGLERMRPGAYSTGYGGYEEYSGLSDGYGFTTDLFGRDLSYCLSGMYDHRYGDSEFTVQSTTGHCVHMRGLPYKATENDIYNFFSPLNPVRVHIEIGPDGRVTGEADVEFATHEEAVAAMSKDRANMQHRYIELFLNSTTGASNGAYSSQVMQGMGVSAAQATYSGLESQSVSGCYGAGYSGQNSMGGYD
As to B3, the “target (unweighted spectral count, OC43 Probe II)” value is 34 and the “background (unweighted spectral count, no-probe control)” value was determined as 4. In addition, for the setting “36 hpi, type n_36_v”, the “target (unweighted spectral count, OC43 Probe II capture)” value is recorded as 34. The “target (unweighted spectral count)” value (12 hpi (type n_12_v)) amounted to 13. For the same molecule, the “target (unweighted spectral count)” value (24 hpi (type n_24_v)) was 27.

B4: SLC2A1 (protein, UniProt P11166 1-492, looked up)
Solute carrier family 2, …: MEPSSKKLTGRLMLAVGGAVLGSLQFGYNTGVINAPQKVIEEFYNQTWVHRYGESILPTTLTTLWSLSVAIFSVGGMIGSFSVGLFVNRFGRRNSMLMMNLLAFVSAVLMGFSKLGKSFEMLILGRFIIGVYCGLTTGFVPMYVGEVSPTALRGALGTLHQLGIVVGILIAQVFGLDSIMGNKDLWPLLLSIIFIPALLQCIVLPFCPESPRFLLINRNEENRAKSVLKKLRGTADVTHDLQEMKEESRQMMREKKVTILELFRSPAYRQPILIAVVLQLSQQLSGINAVFYYSTSIFEKAGVQQPVYATIGSGIVNTAFTVVSLFVVERAGRRTLHLIGLAGMAGCAILMTIALALLEQLPWMSYLSIVAIFGFVAFFEVGPGPIPWFIVAELFSQGPRPAAIAVAGFSNWTSNFIVGMCFQYVEQLCGPYVFIIFTVLLVLFFIFTYFKVPETKGRTFDEIASGFRQGGASQSDKTPEELFHPLGADSQV
As to B4, for the setting “12 hpi (type n_12_v)”, the “target (unweighted spectral count)” value came out at 6.

B5: TRMT10C (protein, UniProt Q7L0Y3 40-403, looked up)
tRNA methyltransferase 10 …: MSSKIPAVTYPKNESTPPSEELELDKWKTTMKSSVQEECVSTISSSKDEDPLAATREFIEMWRLLGREVPEHITEEELKTLMECVSNTAKKKYLKYLYTKEKVKKARQIKKEMKAAAREEAKNIKLLETTEEDKQKNFLFLRLWDRNMDIAMGWKGAQAMQFGQPLVFDMAYENYMKRKELQNTVSQLLESEGWNRRNVDPFHIYFCNLKIDGALHRELVKRYQEKWDKLLLTSTEKSHVDLFPKDSIIYLTADSPNVMTTFRHDKVYVIGSFVDKSMQPGTSLAKAKRLNLATECLPLDKYLQWEIGNKNLTLDQMIRILLCLKNNGNWQEALQFVPKRKHTGFLEISQHSQEFINRLKKAKT
As to B5, the “target (unweighted spectral count)” value (12 hpi (type n_12_v)) was determined as 6.

B6: SLC25A5 (protein, UniProt P05141 1-298, looked up)
ADP/ATP translocase 2: MTDAAVSFAKDFLAGGVAAAISKTAVAPIERVKLLLQVQHASKQITADKQYKGIIDCVVRIPKEQGVLSFWRGNLANVIRYFPTQALNFAFKDKYKQIFLGGVDKRTQFWLYFAGNLASGGAAGATSLCFVYPLDFARTRLAADVGKAGAEREFRGLGDCLVKIYKSDGIKGLYQGFNVSVQGIIIYRAAYFGIYDTAKGMLPDPKNTHIVISWMIAQTVTAVAGLTSYPFDTVRRRMMMQSGRKGTDIMYTGTLDCWRKIARDEGGKAFFKGAWSNVLRGMGGAFVLVLYDEIKKYT
Take B6: the “target (unweighted spectral count)” value (12 hpi (type n_12_v)) was found to be 6.

B7: MTPAP (protein, UniProt Q9NVV4 38-582, looked up)
Poly(A) RNA polymerase, …: KDLRRDEQPSGSVETGFEDKIPKRRFSEMQNERREQAQRTVLIHCPEKISENKFLKYLSQFGPINNHFFYESFGLYAVVEFCQKESIGSLQNGTHTPSTAMETAIPFRSRFFNLKLKNQTSERSRVRSSNQLPRSNKQLFELLCYAESIDDQLNTLLKEFQLTEENTKLRYLTCSLIEDMAAAYFPDCIVRPFGSSVNTFGKLGCDLDMFLDLDETRNLSAHKISGNFLMEFQVKNVPSERIATQKILSVLGECLDHFGPGCVGVQKILNARCPLVRFSHQASGFQCDLTTNNRIALTSSELLYIYGALDSRVRALVFSVRCWARAHSLTSSIPGAWITNFSLTMMVIFFLQRRSPPILPTLDSLKTLADAEDKCVIEGNNCTFVRDLSRIKPSQNTETLELLLKEFFEYFGNFAFDKNSINIRQGREQNKPDSSPLYIQNPFETSLNISKNVSQSQLQKFVDLARESAWILQQEDTDRPSISSNRPWGLVSLLLPSAPNRKSFTKKKSNKFAIETVKNLLESLKGNRTENFTKTSGKRTISTQT
As to B7, the “target (unweighted spectral count, OC43 Probe II capture)” value (24 hpi, type n_24_v) turned out to be 4. For the same molecule, the “target (unweighted spectral count)” value (12 hpi (type n_12_v)) is listed as 4.

B8: HNRNPA2B1 (protein, UniProt P22626 1-353, looked up)
Heterogeneous nuclear …: MEKTLETVPLERKKREKEQFRKLFIGGLSFETTEESLRNYYEQWGKLTDCVVMRDPASKRSRGFGFVTFSSMAEVDAAMAARPHSIDGRVVEPKRAVAREESGKPGAHVTVKKLFVGGIKEDTEEHHLRDYFEEYGKIDTIEIITDRQSGKKRGFGFVTFDDHDPVDKIVLQKYHTINGHNAEVRKALSRQEMQEVQSSRSGRGGNFGFGDSRGGGGNFGPGPGSNFRGGSDGYGSGRGFGDGYNGYGGGPGGGNFGGSPGYGGGRGGYGGGGPGYGNQGGGYGGGYDNYGGGNYGSGNYNDFGNYNQQPSNYGPMKSGNFGGSRNMGGPYGGGNYGPGGSGGSGGYGGRSRY
In the case of B8, the “target (unweighted spectral count, OC43 Probe II)” value is 86 and the “background (unweighted spectral count, no-probe control)” value is on record as 7. Besides, for the setting “12 hpi (type n_12_v)”, the “target (unweighted spectral count)” value was determined as 28.
